# “And” between values parts separate entries of the source, which are not always exact repeats. Identical values can stand only once.
# B1: catalytically inactive S679A mutant of Escherichia coli (strain K12) LonA protease, full length (enzyme, E. coli (strain K12), UniProt P0A9M0 1-784, looked up)
# chain: MNPERSERIEIPVLPLRDVVVYPHMVIPLFVGREKSIRCLEAAMDHDKKIMLVAQKEASTDEPGVNDLFTVGTVASILQMLKLPDGTVKVLVEGLQRARISALSDNGEHFSAKAEYLESPTIDEREQEVLVRTAISQFEGYIKLNKKIPPEVLTSLNSIDDPARLADTIAAHMPLKLADKQSVLEMSDVNERLEYLMAMMESEIDLLQVEKRIRNRVKKQMEKSQREYYLNEQMKAIQKELGEMDDAPDENEALKRKIDAAKMPKEAKEKAEAELQKLKMMSPMSAEATVVRGYIDWMVQVPWNARSKVKKDLRQAQEILDTDHYGLERVKDRILEYLAVQSRVNKIKGPILCLVGPPGVGKTSLGQSIAKATGRKYVRMALGGVRDEAEIRGHRRTYIGSMPGKLIQKMAKVGVKNPLFLLDEIDKMSSDMRGDPASALLEVLDPEQNVAFSDHYLEVDYDLSDVMFVATSNSMNIPAPLLDRMEVIRLSGYTEDEKLNIAKRHLLPKQIERNALKKGELTVDDSAIIGIIRYYTREAGVRGLEREISKLCRKAVKQLLLDKSLKHIEINGDNLHDYLGVQRFDYGRADNENRVGQVTGLAWTEVGGDLLTIETACVPGKGKLTYTGSLGEVMQESIQAALTVVRARAEKLGINPDFYEKRDIHVHVPEGATPKDGPAAGIAMCTALVSCLTGNPVRADVAMTGEITLRGQVLPIGGLKEKLLAAHRGGIKTVLIPFENKRDLEEIPDNVIADLDIHPVKRIEEVLTLALQNEPSGMQVVTAK
# Molecular target: the molecule itself
# Assay: AUC
protein,measurement,value
B1,stoichiometry N,12 and 6

# Source: publication PMC8244335 (Current Research in Structural Biology, 2019)
